From publication PMC3901395, “Multivalent interactions of the SUMO-interaction motifs in RING finger protein 4 determine the specificity for chains of the SUMO” (Biochemical Journal, 2013)

System: mono-SUMOs and SUMO chains
Test: ITC binding to mono-SUMOs and SUMO chains (general statements)
Conditions: full-length dimerized RNF4 vs SIM domain
From the text: For expression in Escherichia coli, linear poly-SUMO chains were generated as described previously with slight modifications. After the combined PCR/ligation reaction, the 4×SUMO2-ΔN11 or 4×SUMO1-ΔN15 DNA polymers were separated from smaller polymers by agarose gel electrophoresis and individually extracted (Macherey–Nagel). These were then subjected to a second PCR with primers to create BamHI and XhoI restriction sites, a C-terminal GG motif and a stop codon. The resulting fragments coding for di-, tri- and tetra-SUMO2-ΔN11 or SUMO1-ΔN15 chains were amplified and cloned into pGEX-4T2. […] Each monomer in these chains is separated by RS replacing the natural GG motif. A similar strategy was used to design C-terminally GFP–HA2-tagged linear poly-SUMOs in the copper-inducible Ycplac22 vector for expression in S. cerevisiae. […]
The mono-SUMOs and linear poly-SUMO1 and poly-SUMO2 proteins as well as all RNF4 constructs were expressed as GST-fusion proteins from E. coli Rosetta™ 2(DE3)pLysS cells (Novagen) cultivated in LB medium with 100 μg/ml ampicillin and 30 μg/ml chloramphenicol after induction with 0.1 mM IPTG at 20°C for 12 h. […]
Binding of peptides and proteins to SUMOs was investigated by ITC using either a VP-ITC or an ITC200 (GE Healthcare). […] Protein concentrations were determined by measuring the absorption at 280 nm. […]

B1: RNF4 FL: full-length human RNF4 (RING finger protein 4); FLAG-tagged in yeast, HA-tagged in HeLa cells (protein)
chain: MSTRKRRGGAINSRQAQKRTREATSTPEISLEAEPIELVETAGDEIVDLTCESLEPVVVDLTHNDSVVIVDERRRPRRNARRLPQDHADSCVVSSDDEELSRDRDVYVTTHTPRNARDEGATGLRPSGTVSCPICMDGYSEIVQNGRLIVSTECGHVFCSQCLRDSLKNANTCPTCRKKINHKRYHPIYI
modifications: left off: GST, end not stated, cleaved
notes: full-length human RNF4 (RING finger protein 4); FLAG-tagged in yeast, HA-tagged in HeLa cells
With B1 the “binding to SUMO chains compared with the monomeric SIM domain” value was “stronger as compared with the monomeric SIM domain, especially for short SUMO chains”.
